The results in this text go back to the DeepSol protein solubility set.

A short description of the data set: soluble on expression in E. coli; label from the status in PepcDB or PDB records.
Take “MSFEQTLEKYAALAVNVGVNIQPGQTLSISAPLEAVQFVRLVTEKAYKSGAKHVYVDWNDETLTRLKFDLAPEEAFAEFPSWKAHAREELAKEGAAFMSIYAENPDLLKGVEASRIATAHKVAGEAMKVYRDYVQADKVSWCVISVPTKEWAAKVFPDVAPEEQEAKLWDAIFKATRADLENPVEAWKEHDETLHTKVDYLNEKHYKALHYTGPGTDLTIELPEKHVWAGAGSLNEKNVPFMANIPTEEVFTMPLKTGVNGQVSSTKPLVFAGNIIDNFTLTFENGRIVDYKAEAGEEALKHLVETDEGSHFLGEVALVPHDSPISNTNVLFYNTLFDENASCHLAIGNAYAFNLVGGKTMSKEELAENGANASITHNDFMIGSAELDIDGITADGRHEPIFRKGNWAF”: the “soluble on expression in E. coli” value is on record as “not soluble”.

Consider “AVCDTPHERLTILYTKILDLLKHFPKHAAYRKYTEQITSEKLELVKLEPDVKKLENLLQGG”, for which the “soluble on expression in E. coli” value is “soluble”.

Consider “LQQFLDALASSPEKIEFETTMAVIEDNYDFTPAAFTNGNTQNDANENNGSCKIFAFGLLNALDKEATLACFGRFYREDVLLHPENNDHQNIRNFMVTGWEGIQFETSALTAK”, for which the “soluble on expression in E. coli” value is reported as “not soluble”.

“MAHHHHHHMCLLDVDEYKHTDTPEPRGEILLRGPFLFKGYYMQEKLTREALDEDGWFHTGDVGSITTHGRLRIIGRVKALAKNVLGEYIALEALESMYAHNALCMPNGVCVLVHPARSYICALVLTDETKAMMFAKEHGIEGSYPDILRDPAFQRKATESMQATARKADRQKFECVRHVRVVGDEWTPENEILTAAGKLKRREIDKRYADVIQLLFVEEC”: the “soluble on expression in E. coli” value is “not soluble”.

For “SSNEHGPVKRSSQSTLERSEQQIRAASSLEELLRITHSEDWKLWRCRLRLKSFTSMDSRSASHRSTRFAATFYDIETLKVIDEEWQRTQCSPRETCVEVASELGKSTNTFFKPPCVNVFRCGGCCNEESLICMNTSTSYISKQLFEISVPLTSVPELVPVKVANHTGCKCLPTAPRHPYSIIRRSIQIPEEDRCSHSKKLCPIDMLWDSNKCKCVLQEENPLAGTEDHSHLQEPALCGPHMMFDEDRCECVCKTPCPKDLIQHPKNCSCFECKESLETCCQKHKLFHPDTCSCEDRCPFHTRPCASGKTACAKHCRFPKEKRAAQGPHSRKNP”, the “soluble on expression in E. coli” value is on record as “soluble”.

For the sequence “MELFTFIPYFLLLEREESDRNTLANANTEFIREVYELQRVEKDVTLVFFQLQYLSCKLVILREHYRTAQKEHLPCYAYIIGTLEYLKGLLDRCRFIHKCGSAIAPACLPTTEGDPPVCWTAEVICLMELLYACHELKMFNGGEVTLGRVVEYVCHVLGVNVKNASSYYARMRRRKAGDRTYFIDRLREVLLKRMEDDDEGHRRRNR”, the “soluble on expression in E. coli” value was “not soluble”.

“MSLQLKSEKARIILSGEPTLLIDKGKIDISALKSQRLNINDLMEELRLKNYFNVEDIEYAILETSGQISLIPKTHLTNATKEDLNLKVKQENVPITIILDGKVNTDNIKYLNKDADWLMKELKKNKIDSPKDVFLALIDSKGKFYYQKYNNEGHHHHHH”: the “soluble on expression in E. coli” value is recorded as “not soluble”.

In the case of “MAHHHHHHMIFVERQTDTENAAYLLAKMLGIHIRNIGMIHGGMQQRQRDYIMNGFKHSQTRILVATDVASRGIDFPDVTCVVNFIAPKSIDRYCHRIGRTGRAGRTGDSFTFIGHSDGCLAKDLVGYLKKCGMEVPQKLLDIAGKYVQYEEQRHLRRSWSGRSGRGFKRQKQDSPAPYQSSSW”, the “soluble on expression in E. coli” value is listed as “not soluble”.

With “MEPPKPEYAPTAHSRYNSQYFYWLFLDLFHLEPSMKLFPSLATLTLCSLMSAPLLAAEQAPELTGCAAKRQAIMNQIEQAKAHGNSNQQAGLERALSEVTAHCTDASLKKERENKVLEAKHEVSRRQADLEKAMKKGDSEKINKRKDKLAESRKELQQALDELDKLEHHHHHH”, the “soluble on expression in E. coli” value is on record as “not soluble”.

Consider “MVDIVKRRDWEKKEKKKIAIERIDTLFTLAERVARYSPDLAKRYVELALEIQKKAKVKIPRKWKRRYCKRCHTFLIPGVNARVRLRTKRMPHVVITCLECGYIMRYPYLREVKQKRKKAT”, for which the “soluble on expression in E. coli” value is “soluble”.

Turning to “MSLNTVYHSYQSLPNEGWGKSDTLSFQCPVTDSIPGTLRLFAEVRNRSEYPYRNLYLFIHENLLDSTVWRTDTIAVNLADSTGRWTGNGWGSIYQTAVFVKSVRPLHPGNYTVKIVHGMQDEKLTGLNDVGIRIEKQGEGHHHHHH”, the “soluble on expression in E. coli” value was “soluble”.

Take “MSLKLLAIAPYEGLRQLFLRVAEEEGLSIKAEVGNLDEGVRLAKKAADESFDVIISRGGTATLIQQHLSIPVVEIEISGYDLLKNLLFLKEYPDKKAIVGFPQITNGVQLINELLDVSFSTVTIHSEGEAIHALKELKAQGFESVLGDVITVNEAERLGMNGFLLSSGEESVRKAFNQAKRVVKALGRDRLNYELPLSYLHEQERGLVLLDQNNDVCFVNEFAKKFQLMEFINDHSFMRQLRTPRETGAFSWSDGHSVWYIRYKAIGNQGLAIEFAQLNERVLNDHPKEGHHHHHH”: the “soluble on expression in E. coli” value is reported as “soluble”.

Take “MAGLKRRASQVWPEEHGEQEHGLYSLHRMFDIVGTHLTHRDVRVLSFLFVDVIDDHERGLIRNGRDFLLALERQGRCDESNFRQVLQLLRIITRHDLLPYVTLKRRRAVCPDLVDKYLEETSIRYVTPRALSDPEPRPPQPSKTVPPHYPVVCCPTSGPQMCSKRPARGRATLGSQRKRRKSVTPDPKEKQTCDIRLRVRAEYCQHETALQGNVFSNKQDPLERQFERFNQANTILKSRDLGSIICDIKFSELTYLDAFWRDYINGSLLEALKGVFITDSLKQAVGHEAIKLLVNVDEEDYELGRQKLLRNLMLQALPLEHHHHHH”: the “soluble on expression in E. coli” value is “not soluble”.

As to “MEMTNAQRLILSNQYKMMTMLDPTNAERYRRLQTIIERGYGLQMRELDREFGELTEETCRTIIDIMEMYHALHVSWTNLKDTQAIDERRVTFLGFDAATEARYLGYVRFMVNIEGRYTHFDAGTHGFNAQTPMWEKYQRMLNVWHACPRQYHLSANEINQIINA”, the “soluble on expression in E. coli” value was “not soluble”.

On to “LAEGKEIPCFALTSPEAGSDAGSIPDYGVVTKGMWEGEEVVGMRITWNKRYITLAPVATVLGLAFKLQDPDGLLGDKKDLGITCALIPTDLDGVKIGRRHFPLNVPFQNGPTQGNDLFVPLDYIIGG”, for which the “soluble on expression in E. coli” value is reported as “not soluble”.

Take “MLASIVISSVHSIGTGALECRATHRGHRAGPYLSSSETRHRAAISGTVDMRETKQGLRHSGRSPSVASPKIDELIGRPQPDTIRLSRGRPVRNS”: the “soluble on expression in E. coli” value is listed as “not soluble”.

Consider “MTDRYSFSLTTFSPSGKLGQIDYALTAVKQGVTSLGIKATNGVVIATEKKSSSPLAMSETLSKVSLLTPDIGAVYSGMGPDYRVLVDKSRKVAHTSYKRIYGEYPPTKLLVSEVAKIMQEATQSGGVRPFGVSLLIAGHDEFNGFSLYQVDPSGSYFPWKATAIGKGSVAAKTFLEKRWNDELELEDAIHIALLTLKESVEGEFNGDTIELAIIGDENPDLLGYTGIPTDKGPRFRKLTSQEINDRLEAL”, for which the “soluble on expression in E. coli” value was “soluble”.

“MGSDKIHHHHHHMTSSPTSTQESSTSWYLLLQQLIDGESLSRSQAAELMQGWLSEAVPPELSGAILTALNFKGVSADELTGMAEVLQSQSKMGTGENYSQLPITNSPFSIIDTCGTGGDGSSTFNISTAVAFVAAAYGVPVAKHGNRSASSLTGSADVLEALGVNLGASPEKVQAALQEVGITFLFAPGWHPALKAVATLRRTLRIRTVFNLLGPLVNPLRPTGQVVGLFTPKLLTTVAQALDNLGKQKAIVLHGRERLDEAGLGDLTDLAVLSDGELQLTTINPQEVGVTPAPIGALRGGDVQENAEILKAVLQGKGTQAQQDAVALNAALALQVAGAVPLLDHAQGVSVAKEILQTGTAWAKLAQLVYFLGN”: the “soluble on expression in E. coli” value was “soluble”.

With “MATPYVPVPMPIGNSASSFTNNRNQRSSSFGSVSTSSTSSKGQLEDSAVGSLKQTNVQDQMDSASSMCGSPLIRTKFTGTDSSIEYSARPREAEEQHPEAVNWEDRPSTPTILGYEVMEERAKFTVYKILVKKSPEESWVVFRRYTDFSRLNDKLKEMFPGFRLALPPKRWFKDNYNAEFLEDRQLGLQAFLQNLVAHKDIANCLAVREFLCLDDPPGPFDSLEESRAFCETLEETNYHLQRELLEKQKEVESLKKLLGEKQLHIDALETRIRTLSLEPGASLYVSRAEGGQILRVEPSVLQVNRDVLDEESRADHKPHFNSREAGSVIAGIEVAQLAYNAEDD”, the “soluble on expression in E. coli” value is recorded as “soluble”.

As to “MAGDPMVTQNKKILIITGSFGNGHLQVTQSVVNQFKEMNLDNLTVIEHDLFLEAHPILTSICKKWYINSFKYFRNMYKAFYYSQPDQLDKCFYKYYGLNKLMNLLLKEKPDLILLTFPTPVMSVLTEQFDMNIPIATVMTDYRMQKNWITPFSQRYYLATEELKDEFASIGIPKDKLKVTGIPISDKFETDIDKTAWLSQNHLDPDKPTILMSAGAFGVSKGFGQMIQEILNRSPHAQVVMICGKNKDLKRSLTSQFKDFNNVLILGYTKHMNEWMASSQLMITKPGGITISEALTRQIPMIFLDPAPGQELENAVYFEEKGYGRIANTPEAAIEQVAALTNAPTKLASMSESMDASRIPYSTYKLCKDLLNLLNHSSHYEEVYGKVPLYAKLFVKLEHHHHHH”, the “soluble on expression in E. coli” value is “not soluble”.

For the sequence “MSRPDQAKVTVAKGDIKAIAAALDMYKLDNFAYPSTQQGLEALVKKPTGNPQPKNWNKDGYLKKLPVDPWGNPYQYLAPGTKGPFDLYSLGADGKEGGSDNDADIGNWDN”, the “soluble on expression in E. coli” value is on record as “soluble”.

Consider “SKGIKSEEVKINNIAIEINKATKRDPGNCNLDNHIKPSPDSSLDNQMKLSCESAPDQNFSICSASEVETNPLENTAAASTLLSQAKIDEDRTFPGSAPNQQHSVLSDEASINRKNRDVPPNHSQLKHDSHLEITIPKSLKLKDSEKVDEKQLVIDAGHKRFGAVSCNICGMLYTASNPEDETQHLLFHNQFISAVKYVVLLINHHECGSEEEFITSLFLSMSNFRYTQRSLLPY”, for which the “soluble on expression in E. coli” value is recorded as “soluble”.

For the sequence “MGMYFVGIDGGGTSCRARIKDSQGNFLGEAKSGSANIMLGAEIAMASILESITSAAEQGGLTQQDFASMHVGLALAGAEHKASWQAFMSLPHPFASMTLNTDAYGACVGAHNGEDGAIMIAGTGSCGIYLKGLEQHVVGGREFPISDQGGGAVMGLRLVQQVLLAEDGIREKTPLAQHVMAYFENDVDNVVAWSKQALPRDYGQFSPAIFQHAEQGDALAIEMLKQTAADIEMFLVALNKRGATRICLMGSIAERILRWLSPPVQQWVVEPQFDAIEGAIMFAGKPEHNLYSLSAALEHHHHHH”, the “soluble on expression in E. coli” value is “not soluble”.

On to “MSSTIPALPGPEPGPGPGPAGPVSLTERRKAETRMEIARAAARLFVGQGLRATRAEDIARAAGVAPRTFYRYFATKEEAVAPLYALGAERWVRAVREAPAELSPPEALERAVRHTLTPGAGVSAPSWEWARTLIRLAESSPALRKVWAEVCHSTERGLVQALAARMSGGDDNVAVRLAASPRLHFAAAVAGASVRVAAEHWASSSPQGARSPLEQALLNLEVLRGFAWEAGPAEEG”, for which the “soluble on expression in E. coli” value was “not soluble”.

In the case of “MGLHPTLGEHGERELLALQKVDYPKGDVKAQAKHTARTLLECYNCHSLGEYNTLLNLYNITVYEVRGSVDGKEYHGIMYGALDDNGQQVGTPFKSSKFGKVFGYEALQKKFAASAEKVKKDNLPERLEHHHHHH”, the “soluble on expression in E. coli” value is listed as “soluble”.

“MSLQTAAAPTPAPVAAAPALPQGQVNIAVGSLKCKAEKCYGGLGEGIGDALTTALLNTGKFAVYERENTAQLTEEAFLNGGATFQGADVLIFGAITQYEPQASSGGLSFMGVSVGKKSSTIAMDLRIVDAKTRRIIGATQVQGKAEGNNFNVSGLLPVNVGAQSSPQLEAAISQMLNNAAQQLLLKVPASYYKEEGHHHHHH”: the “soluble on expression in E. coli” value was “soluble”.
